# PMC5435868, “Crystal structure of U2 snRNP SF3b components: Hsh49p in complex with Cus1p-binding domain” (RNA, 2017)
# T1: Hsh49p (Saccharomyces cerevisiae) (UniProt Q99181)
# T1 sequence: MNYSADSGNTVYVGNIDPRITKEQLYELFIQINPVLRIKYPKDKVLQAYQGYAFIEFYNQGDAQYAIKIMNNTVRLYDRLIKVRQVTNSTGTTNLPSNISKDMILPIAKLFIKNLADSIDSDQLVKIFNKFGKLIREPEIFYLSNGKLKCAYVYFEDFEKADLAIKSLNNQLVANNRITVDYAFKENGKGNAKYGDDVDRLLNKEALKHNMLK
# T2: Hsh49p Tyr52Ala-Phe54Ala (RRM1 mutant);Cus1(290-350)p (Saccharomyces cerevisiae;Saccharomyces …, UniProt Q99181;Q02554 1-213;290-350, Y52A;F54A|)
# T2 sequence 1: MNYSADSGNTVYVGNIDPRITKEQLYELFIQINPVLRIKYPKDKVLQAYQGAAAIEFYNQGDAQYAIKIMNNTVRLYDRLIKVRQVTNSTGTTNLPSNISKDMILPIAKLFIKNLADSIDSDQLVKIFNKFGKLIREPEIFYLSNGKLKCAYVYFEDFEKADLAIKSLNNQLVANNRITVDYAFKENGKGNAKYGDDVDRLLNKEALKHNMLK
# T2 sequence 2: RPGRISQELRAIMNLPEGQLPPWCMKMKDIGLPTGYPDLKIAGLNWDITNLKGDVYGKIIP
# T3: Hsh49p (Saccharomyces cerevisiae, UniProt Q99181 1-213)
# T3 sequence: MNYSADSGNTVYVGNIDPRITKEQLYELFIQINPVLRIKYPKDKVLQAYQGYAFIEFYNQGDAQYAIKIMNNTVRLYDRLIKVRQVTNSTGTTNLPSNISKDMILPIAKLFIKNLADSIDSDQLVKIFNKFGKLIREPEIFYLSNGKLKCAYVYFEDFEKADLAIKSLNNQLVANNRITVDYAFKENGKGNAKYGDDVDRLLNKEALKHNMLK
# T4: Hsh49p Tyr152Ala-Tyr154Ala (RRM2 mutant);Cus1(290-350)p (Saccharomyces cerevisiae;Saccharomyces …, UniProt Q99181;Q02554 1-213;290-350, Y152A;Y154A|)
# T4 sequence 1: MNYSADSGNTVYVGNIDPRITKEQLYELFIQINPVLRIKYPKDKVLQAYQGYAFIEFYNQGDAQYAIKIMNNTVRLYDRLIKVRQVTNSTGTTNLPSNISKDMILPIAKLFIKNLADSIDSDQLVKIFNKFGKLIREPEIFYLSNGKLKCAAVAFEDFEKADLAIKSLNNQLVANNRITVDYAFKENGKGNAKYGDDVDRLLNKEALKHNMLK
# T4 sequence 2: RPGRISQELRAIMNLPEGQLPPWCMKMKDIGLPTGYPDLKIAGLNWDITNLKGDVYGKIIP
# T5: Hsh49p;Cus1(290-368)p (Saccharomyces cerevisiae;Saccharomyces …, UniProt Q99181;Q02554 1-213;290-368, |)
# T5 sequence 1: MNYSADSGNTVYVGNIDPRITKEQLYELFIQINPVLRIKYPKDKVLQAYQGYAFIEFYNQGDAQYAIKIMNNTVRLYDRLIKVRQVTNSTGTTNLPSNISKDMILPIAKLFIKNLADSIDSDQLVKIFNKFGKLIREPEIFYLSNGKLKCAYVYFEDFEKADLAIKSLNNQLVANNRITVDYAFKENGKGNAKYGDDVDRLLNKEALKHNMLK
# T5 sequence 2: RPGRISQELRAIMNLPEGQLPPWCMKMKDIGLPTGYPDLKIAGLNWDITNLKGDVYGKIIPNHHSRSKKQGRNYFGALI
# T6: Hsh49p RRM2 (Saccharomyces cerevisiae, UniProt Q99181 108-185)
# T6 sequence: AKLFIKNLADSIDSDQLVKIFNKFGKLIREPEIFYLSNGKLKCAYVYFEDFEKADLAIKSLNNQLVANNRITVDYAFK
# T7: HisHsh49p (S. cerevisiae, UniProt Q99181 1-213)
# T7 construct: Hsh49p, S. cerevisiae; Held on Ni-NTA resin by its His tag after the trypsin digest; also called His-tagged Hsh49p; source: E. coli, coexpressed with Cus1(121-392)p, purified as complex; not shown: His6, N-terminal, kept
# T7 sequence (looked up): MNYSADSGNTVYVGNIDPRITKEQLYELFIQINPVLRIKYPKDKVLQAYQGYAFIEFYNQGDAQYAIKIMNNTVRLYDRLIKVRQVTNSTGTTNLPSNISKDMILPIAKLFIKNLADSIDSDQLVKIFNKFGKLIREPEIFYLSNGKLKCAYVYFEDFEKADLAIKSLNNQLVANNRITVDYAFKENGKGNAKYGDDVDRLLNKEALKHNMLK
# Assays:
# [1] = target: T1, Hsh49p (Saccharomyces cerevisiae); assay: fluorescence anisotropy; details: 20 mM K-Hepes pH 7.5, 125 mM KCl, 1 mM EDTA, 5 mM DTT, 0.01% Igepal, E. coli tRNA (100 ng FA, 500 ng EMSA), 22°C 20 min; EMSA gels at 4°C
# [2] = target: T2, Hsh49p Tyr52Ala-Phe54Ala (RRM1 …); assay: fluorescence anisotropy; 20 mM K-Hepes pH 7.5, 125 mM KCl, 1 mM EDTA, 5 mM DTT, 0.01% Igepal, E. coli tRNA (100 ng FA, 500 ng EMSA), 22°C 20 min; EMSA gels at 4°C; details: protein: recombinant;recombinant; tags: His-TEV tag (cleaved);none stated; coexpressed; copies: 1;1; label: 3' fluorescein; hairpin with 5' single strand
# Hsh49p = target: T3, Hsh49p; assay: EMSA; up to 1.5 µM protein, E. coli tRNA; 20 mM K-Hepes pH 7.5, 125 mM KCl, 1 mM EDTA, 5 mM DTT, 0.01% Igepal, E. coli tRNA (100 ng FA, 500 ng EMSA), 22°C 20 min; EMSA gels at 4°C; details: protein: recombinant, tags: His-TEV tag (cleaved), label: 3' fluorescein
# [3] = target: T4, Hsh49p Tyr152Ala-Tyr154Ala (RRM2 …); assay: fluorescence anisotropy; mutation has no effect; 20 mM K-Hepes pH 7.5, 125 mM KCl, 1 mM EDTA, 5 mM DTT, 0.01% Igepal, E. coli tRNA (100 ng FA, 500 ng EMSA), 22°C 20 min; EMSA gels at 4°C; details: protein: recombinant;recombinant; tags: His-TEV tag (cleaved);none stated; coexpressed; copies: 1;1; label: 3' fluorescein; hairpin with 5' single strand
# Hsh49p;Cus1(290-368)p [4] = target: T5, Hsh49p;Cus1(290-368)p; assay: fluorescence anisotropy; similar to RRM1-Cus1(290-368)p; 20 mM K-Hepes pH 7.5, 125 mM KCl, 1 mM EDTA, 5 mM DTT, 0.01% Igepal, E. coli tRNA (100 ng FA, 500 ng EMSA), 22°C 20 min; EMSA gels at 4°C; details: protein: recombinant;recombinant; tags: His-TEV tag (cleaved);none stated; coexpressed; copies: 1;1; label: 3' fluorescein; hairpin with 5' single strand
# Hsh49p;Cus1(290-368)p [5] = target: T5, Hsh49p;Cus1(290-368)p; assay: fluorescence anisotropy; 20 mM K-Hepes pH 7.5, 125 mM KCl, 1 mM EDTA, 5 mM DTT, 0.01% Igepal, E. coli tRNA (100 ng FA, 500 ng EMSA), 22°C 20 min; EMSA gels at 4°C; details: protein: recombinant;recombinant; tags: His-TEV tag (cleaved);none stated; coexpressed; copies: 1;1; label: 3' fluorescein; hairpin with single-stranded flanks
# Hsh49p;Cus1(290-368)p [6] = target: T5, Hsh49p;Cus1(290-368)p; assay: fluorescence anisotropy; pseudouridines have no large effect; 20 mM K-Hepes pH 7.5, 125 mM KCl, 1 mM EDTA, 5 mM DTT, 0.01% Igepal, E. coli tRNA (100 ng FA, 500 ng EMSA), 22°C 20 min; EMSA gels at 4°C; details: protein: recombinant;recombinant; tags: His-TEV tag (cleaved);none stated; coexpressed; copies: 1;1; label: 3' fluorescein; hairpin with single-stranded flanks
# Hsh49p;Cus1(290-368)p [7] = target: T5, Hsh49p;Cus1(290-368)p; assay: EMSA; up to 1.5 µM protein, E. coli tRNA; 20 mM K-Hepes pH 7.5, 125 mM KCl, 1 mM EDTA, 5 mM DTT, 0.01% Igepal, E. coli tRNA (100 ng FA, 500 ng EMSA), 22°C 20 min; EMSA gels at 4°C; details: protein: recombinant;recombinant, tags: His-TEV tag (cleaved);none stated, coexpressed, copies: 1;1, label: 3' fluorescein
# Hsh49p RRM2 = target: T6, Hsh49p RRM2; assay: fluorescence anisotropy; 20 mM K-Hepes pH 7.5, 125 mM KCl, 1 mM EDTA, 5 mM DTT, 0.01% Igepal, E. coli tRNA (100 ng FA, 500 ng EMSA), 22°C 20 min; EMSA gels at 4°C; details: protein: recombinant; tags: His-TEV tag (cleaved); label: 3' fluorescein; hairpin
# HisHsh49p = target: T7, HisHsh49p; assay: pull-down; purified HisHsh49p–Cus1 complex (40 µM) cut with trypsin (10 µg/mL, 10 min, 22°C), His-tagged Hsh49p held on Ni-NTA resin; fragments told by N-terminal sequencing and MALDI-TOF; details: both partners purified
molecule,measurement,setting,value
ACGAAUCUCUUUGCCUUUUGGCUUAGAUCAAGUGUAGUAUCUGUUCU [5'SLIBPRS],binding signal (fold weaker than Hsh49p-Cus1(290-368)p),[1],10
ACGAAUCUCUUUGCCUUUUGGCUUAGA (structured_RNA) [5'SLI],binding signal,[2],~10 fold lower affinity than wild type
same,binding result,Hsh49p; hairpin with 5' single strand,no binding
same,binding result,[3],binds
same,binding result,Hsh49p;Cus1(290-368)p [4],binds
ACGAAUCUCUUUGCCUUUUGGCUUAGAUCAAGUGUAGUAUCUGUUCU (structured_RNA) [5'SLIBPRS],binding signal,Hsh49p;Cus1(290-368)p [5],~10 fold stronger than Hsh49p alone
"ACGAAUCUCUUUGCCUUUUGGCUUAGAUCAAGUGUAGUAUCUGUUCU (structured_RNA, pseudouridines around the BPRS (positions in figure)) [5'SLIBPRS-pseu]",binding result,Hsh49p;Cus1(290-368)p [6],binds
UCUUUGCCUUUUGGCUUAGA (structured_RNA) [SLI],binding result,Hsh49p; hairpin,no binding
same,binding result,Hsh49p;Cus1(290-368)p [7]; hairpin,no binding
UGACCUCAAUGAGGCUCA (structured_RNA) [SLIIb],binding result,Hsh49p RRM2,no binding
same,binding result,Hsh49p; hairpin,no binding
same,binding result,Hsh49p;Cus1(290-368)p [7]; hairpin,no binding
UUUCAGUGUAACAACUGAAA (structured_RNA) [SLIIa],binding result,Hsh49p RRM2,no binding
same,binding result,Hsh49p; hairpin,no binding
same,binding result,Hsh49p;Cus1(290-368)p [7]; hairpin,no binding
UCAAGUGUAGUAUCUGUUCU (ssRNA) [BPRS],binding result,Hsh49p,no binding
same,binding result,Hsh49p;Cus1(290-368)p [7],no binding
"Cus1p fragment comprising residues 285-355 (domain or fragment, S. cerevisiae, UniProt Q02554 285-355, looked up, also called digested Cus1p fragment; source: trypsin digest of the purified HisHsh49p-Cus1 complex made in E. coli) MVDHKRPGRISQELRAIMNLPEGQLPPWCMKMKDIGLPTGYPDLKIAGLNWDITNLKGDVYGKIIPNHHSR",binding result,HisHsh49p,binds
